B1: FM PEP: recombinant prolyl endopeptidase from Flavobacterium meningosepticum (Genbank D10980) (protein)
chain: QNSNVLKYPETKKVSHTDTYFGTQVSDPYRWLEDDRAEDTKAWVQQEVKFTQDYLAQIPFRDQLKKQLMDIWNYEKISAPFKKGKYTYFSKNDGLQAQSVLYRKDAAGKTEVFLDPNKFSEKGTTSLASVSFNKKGTLVAYSISEGGSDWNKIIILDAETKKQLDETLLDVKFSGISWLGDEGFFYSSYDKPKEGSVLSGMTDKHKVYFHKLGTKQSQDELIIGGDKFPRRYIGAYVTDDQRYLVVSAANATNGNELYIKDLKNKTDFIPIITGFDSNVNVADTDGDTLYLFTDKDAPNKRLVKTTIQNPKAETWKDVIAETSEPLEINTGGGYFFATYMKDAIDQVKQYDKNGKLVRAIKLPGSGNASGFGGEKTEKDLYYSFTNYITPPTIFKYNVTTGNSEVYQKPKVKFNPENYVSEQVFYTSSDGTKIPMMISYKKGLKKDGKNPTILYSYGGFNISLQPAFSVVNAIWMENGGIYAVPNIRGGGEYGKKWHDAGTKMQKKNVFNDFIAAGEYLQKNGYTSKEYMALSGRSNGGLLVGATMTMRPDLAKVAFPGVGVLDMLRYNKFTAGAGWAYDYGTAEDSKEMFEYLKSYSPVHNVKAGTCYPSTMVITSDHDDRVVPAHSFKFGSELQAKQSCKNPILIRIETNAGHGAGRSTEQVVAENADLLSFALYEMGIKSLK
B2: MX PEP: novel recombinant prolyl endopeptidase from Myxococcus xanthus (Genbank AF127082, SEQ ID NO:47) (protein, listed as Myxococcus xanthus)
chain: MSYPATRAEQVVDTLHGVQVADPYRWLEDEKAPEVQTWMTAQNAHAREALAKFPGREALAARFKELFYTDSVSTPSRRNGRFFYVRTHKDKEKAILYWRQGESGQEKVLLDPNGWSKDGTVSLGTWAVSWDGKKVAFAQKPNAADEAVLHVIDVDSGEWSKVDVIEGGKYATPKWTPDSKGFYYEWLPTDPSIKVDERPGYTTIRYHTLGTEPSKDTVVHERTGDPTTFLQSDLSRDGKYLFVYILRGWSENDVYWKRPGEKDFRLLVKGVGAKYEVHAWKDRFYVLTDEGAPRQRVFEVDPAKPARASWKEIVPEDSSASLLSVSIVGGHLSLEYLKDATSEVRVATLKGKPVRTVQLPGVGAASNLMGLEDLDDAYYVFTSFTTPRQIYKTSVSTGKSELWAKVDVPMNPEQYQVEQVFYASKDGTKVPMFVVHRKDLKRDGNAPTLLYGYGGFNVNMEANFRSSILPWLDAGGVYAVANLRGGGEYGKAWHDAGRLDKKQNVFDDFHAAAEYLVQQKYTQPKRLAIYGGSNGGLLVGAAMTQRPELYGAVVCAVPLLDMVRYHLFGSGRTWIPEYGTAEKPEDFKTLHAYSPYHHVRPDVRYPALLMMAADHDDRVDPMHARKFVAAVQNSPGNPATALLRIEANAGHGGADQVAKAIESSVDLYSFLFQVLDVQGAQGGVAAQGR

Tests used:
[1] = tested on: trypsin, chymotrypsin, elastase and carboxypeptidase A; assay: Pancreatic protease stability; format: in vitro ADME; details: pH 6.5
Method: (§1) FIG. 9. Resistance of the FM PEP and the MX PEP to inactivation by gastric and pancreatic enzymes. Pancreatic enzyme stability was evaluated by treating 5 U/ml of the FM PEP and the MX PEP with 1 mg/ml trypsin, 1 mg/ml chymotrypsin, 0.2 mg/ml elastase and 0.2 mg/ml carboxypeptidase A (40 mM phosphate, pH=6.5). Pepsin stability was tested by treating the FM PEP and the MX PEP (5 U/ml) with 1 mg/ml pepsin (pH=2, 20 mM HCl).
(§2) Gastric and Pancreatic Protease Stability. […] Absorption was measured at 410 nm for 1 to 2 min every 10 s to assay residual activity. […] Enzyme activities are expressed as a percentage of the maximum activity, typically observed at the zero time point.
(§3) PEP Stability. […] We therefore evaluated the extent to which the activity of each PEP remains intact after 10 min of incubation at selected pH values between 1.6 and 3.9. […] Since therapeutic efficacy would require a PEP to act upon gluten in conjunction with pancreatic proteases that are secreted into the duodenum, the resistance of FM PEP and MX PEP toward both gastric and pancreatic enzymes was evaluated. For this we pre-incubated the enzymes with physiological quantities of either pepsin (at pH 2) or a cocktail comprising of trypsin, chymotrypsin, elastase and carboxypeptidase A (at pH 6.5).

pepsin = assay: Gastric protease stability; format: in vitro ADME; details: 1 mg/ml pepsin, pH 2
Method: as §1, §2, §3

[2] = tested on: PQPQLPYPQPQLP and LQLQPFPQPQLPYPQPQLPYPQPQLPYPQPQPF; assay: Competitive proteolysis of 13-mer and 33-mer by each PEP; format: biochemical, wheat; details: 50 μM PQPQLPYPQPQLP, 10 μM 33-mer, 0.1 μM PEP
Method: FIGS. 12A-12C. […] 10 μM of the longer peptide and 50 μM of the shorter peptide were co-incubated with 0.1 μM of (A) FM PEP; (B) MX PEP; (C) SC PEP.
To examine the chain length specificity of individual PEPs, we performed competitive reactions containing both gluten-derived peptides, subjected the reaction mixture to RP-HPLC, and monitored the disappearance of each substrate was monitored as a function of time.

[3] = tested on: LQLQPFPQPQLPYPQPQLPYPQPQLPYPQPQPF (33-mer); assay: Hydrolysis of the 33-mer gliadin peptide by PEPs, HPLC; format: biochemical, wheat; details: for rate of substrate (33-mer+32-mer) disappearance: 10 μM substrate; for initial hydrolytic products of the 33-mer: LC/MS/MS
Method: FIGS. 11A-11C. Hydrolysis of (SEQ ID NO:12) […] by FM PEP, MX PEP and SC PEP. (A) Time dependence of hydrolysis in the presence of 10 μM substrate and 0.1 μM enzyme. […] (B) Initial cleavage fragments observed due to hydrolysis by FM PEP (t=1 min) and MX PEP (t=5 min). (C) Summary of initial cleavage fragments from FM PEP and MX PEP catalyzed hydrolysis of the 33-mer substrate.
Substrate Specificity. In addition to the reference substrates above, enzyme specificity was also evaluated using two immunogenic peptides derived from the sequence of γ-gliadin proteins in gluten. Both peptides were synthesized using solid-phase peptide synthesis. The peptide (SEQ ID NO:4) […] contains the immunodominant γII-epitope, and is resistant to proteolysis by pepsin or any pancreatic enzyme. PEP specificity toward this substrate was assessed in a competitive assay in which 100 μM (SEQ ID NO:4) […] and 100 μM Suc-Ala-Pro-pNA were mixed and reacted with 0.02 μM PEP at 25° C. The initial velocity of Suc-Ala-Pro-pNA cleavage was measured spectrophotometrically, whereas the initial velocity of (SEQ ID NO:4) […] hydrolysis was determined via HPLC. The apparent specificity, kcat/KM, for the hydrolysis of (SEQ ID NO:4) […] could be determined based on the known kcat/KM of the enzyme for Suc-Ala-Pro-pNA and the observed reaction rates of the two substrates. […] Proteolysis reactions were performed at 37° C. in PBS buffer with 5-100 μM peptide and 0.1 μM PEP for time periods of 1 min-4 hrs.
The decrease in substrate concentration as well as concomitant intermediate and product build-up were monitored with HPLC analysis. RP-HPLC was performed on a system consisting of Beckman or Rainin Dynamax SD-200, a Varian 340 UV detector set at 215 nm and 280 nm. Solvent A was H2O with 0.1% TFA and solvent B was acetonitrile with 0.1% TFA; gradient used: 0-5% B in 0-15 min, 5-30% B in 15-30′, 30-100% B in 30-35 min, 100% B for 5′; flow 1 ml/min; separation was performed on a 4.6×150 mm reverse phase C-18 column (Vydac, Hesperia, Calif., USA). Samples were centrifuged for 10 min at 13,400 g, prior to injection of 10-100 μl. […] Thus, multiple peptides accumulate during the course of the reaction, some of which are secondary PEP substrates in themselves.
Chain Length Tolerance and Selectivity. […] Thus, the SC PEP appears to have a severe chain length restriction for long peptide substrates.

Row | Molecule | resistance to pancreatic enzymes [1] | resistance to pepsin (pepsin) | chain length selectivity, 13-mer vs 33-mer [2] | time to hydrolyze 10 μM of the 33-mer ([3]; 0.1 μM enzyme) [min] | rate of substrate (33-mer+32-mer) disappearance ([3]; 0.1 μM enzyme) [µM/min] | initial hydrolytic products of the 33-mer [3] | faster action on the 33-mer than the MX PEP ([3]; based on initial rates) [fold] | faster action on the 33-mer than the SC PEP ([3]; based on initial rates) [fold]
1 | B1 | remarkably stable to destruction | highly susceptible to pepsin catalyzed proteolysis | comparable selectivity for both peptides | 2 to 3 | 2.3 | yielded longer intermediates | 5 | > 20
2 | B2 | remarkably stable to destruction | highly susceptible to pepsin catalyzed proteolysis | clear preference for the 13-mer peptide |  | 0.43 | fragments mostly of 4-5 residues |  | 
